According to US20230220016A1:

Molecular target: 434cI-SH2 (SH2 domain of ABL1 kinase fused to 434 cI repressor) (434 phage) (UniProt P16117)
Test: cell-based or functional assay

transcriptional activation, bacterial 2-hybrid, wild type PlacZ promoter: 17 fold
Substance: RpoZ-HA4 (monobody HA4 fused to RpoZ) (from UniProt P0A800 1-91) (designed binder)
transcriptional activation, bacterial 2-hybrid, sensitized promoter PlacZ-opt: 200 fold
